# Results taken from US8192946B2, “Assays for detecting pregnancy-associated glycoproteins” (The Curators of The University of Missouri, priority 2008, dated 2012).
# Square brackets hold non-standard residues; d marks the D form. Peptide text beside a SMILES is read from it. * marks the point of attachment. Sta = CC(C)C[C@H](N)[C@@H](O)CC(=O)O; Isovaleryl = CC(C)CC(=O)*
# B1: tsh (control): recombinant equine-TSH-beta expressed and purified in the same manner as the PAGs, negative control (protein)
# chain: FCIPTEYMMHVERKECAYCLTINTTICAGYCMTRDINGKLFLPKYALSQDVCTYRDFMYKTVEIPGCPDHVTPYFSYPVAVSCKCGKCNTDYSDCIHEAIKANYCTKPQKSYVVEFSI
# B2: poPAG-2: recombinant porcine PAG-2, FLAG-tagged (protein)
# chain: DYKDDDDKLVMIPLTKVKSVRESLREKGLLKNFLKEHPYNMIQNLLSKNSSHVQKFSYQPLRNYLDMVYVGNISIGTPPQQFSVVFDTGSSDLWVPSIYCKSKACVTHRSFNPSHSSTFHDRGKSIKLEYGSGKMSGFLGQDTVRIGQLTSTGQAFGLSKEETGKAFEHAIFDGILGLAYPSIAIKGTTTVIDNLKKQDQISEPVFAFYLSSDKEEGSVVMFGGVDKKYYKGDLKWVPLTQTSYWQIALDRITCRGRVIGCPRGCQAIVDTGTSMLHGPSKAVAKIHSLIKHFEKEYVVPCNARKALPDIVFTINNVDYPVPAQAYIRKYVVPCNARKALPDIVFTINNVDYPVPAQAYIRKNANNNRCYSTFEDIMDTLNQREIWILGDVFLRLYFTVYDEGQNRIGLAQAT
# B3: boPAG-2: recombinant bovine PAG 2 expressed in a baculovirus expression system as FLAG-tagged fusion protein (protein)
# chain: DYKDDDDKIVILPLKKMKTLRETLREKNLLNNFLEEQAYRLSKNDSKITIHPLRNYLDTAYVGNITIGTPPQEFRVVFDTGSANLWVPCITCTSPACYTHKTFNPQNSSSFREVGSPITIFYGSGIIQGFLGSDTVRIGNLVSPEQSFGLSLEEYGFDSLPFDGILGLAFPAMGIEDTIPIFDNLWSHGAFSEPVFAFYLNTNKPEGSVVMFGGVDHRYYKGELNWIPVSQTSHWQISMNNISMNGTVTACSCGCEALLDTGTSMIYGPTKLVTNIHKLMNARLENSEYVVSCDAVKTLPPVIFNINGIDYPLRPQAYIIKIQNSCRSVFQGGTENSSLNTWILGDIFLRQYFSVFDRKNRRIGLAPAV
# Key:
# Type in all cases: biochemical
# [1] = tested on: native bovine PAG (preparation 7-10); experiment: inhibition of native PAG peptidase activity by pepstatin A; settings: parallel samples in pH 3.5, 4 and 4.5 buffers; FIG. 1
# From the text: FIG. 1. pH profile of the activity of native bovine PAG (preparation 7-10) against a fluorescent peptidase substrate. The PAG was isolated by pepstatin affinity chromatography and further purified by anion exchange chromatography. Identical amounts of the 7-10 preparation were mixed with a fluorescent peptidase substrate in the presence of buffers adjusted to different pH levels. The extent of fluorescent product release is indicated on the y-axis and the pH conditions of each reaction are indicated on the x-axis. Parallel samples in the pH 3.5, 4 and 4.5 buffers were treated with pepstatin A, an inhibitor of aspartic peptidases, to determine if any observed activity was from aspartic peptidases.
# In each of the examples shown in FIGS. 1-3, native bovine PAGs were bound to pepstatin-agarose matrix at pH 7 or 7.5, washed and eluted by increasing osmolarity (up to 1 M NaCl), including detergent (1% Triton X-100) and increasing the pH of the elution buffer. Different PAGs bind with differing affinities to the aspartic peptidase inhibitor, pepstatin A, and it is possible to isolate different members of the family by systematically altering binding and elution conditions (e.g. Green et al., 2005; Wooding et al., 2005). The differences in activity and pH optima for each of these preparations are illustrated in FIGS. 1-3. […]
# [2] = tested on: cathepsin D/E FRET substrate; experiment: anti-FLAG immuno-trap protease assay of recombinant candidate bovine PAGs at pH 3-7
# Procedure: FIGS. 6A and 6B. Relative protease activity, as measured by fluorescence, from an immuno-trap protease assay of several recombinant PAGs isolated with an anti-FLAG monoclonal antibody. The reactions were performed under several pH conditions simultaneously (pH 2.5 to 7.0). Identical concentrations of each recombinant PAG lysate were added to the wells.
# Table 5 and FIGS. 6A and 6B show results of protease activity (fluorescence) from immuno-trap assays of several additional recombinant bovine PAGs that were expressed as fusion proteins with a FLAG epitope tag. The PAGs were immobilized in the wells of an ELISA plate by using anti-FLAG in an immuno-protease assay format (as described above) and were analyzed for their proteolytic activity against the cathepsin D/E FRET substrate at pH increments ranging from 3-7. […] This protein was used as a negative control in the assay to establish the baseline for background fluorescence.
# [3] = tested on: fluorescent cathepsin D/E substrate; experiment: proteolytic activity of purified recombinant PAGs as a function of pH; settings: 20 μM substrate; for pH of maximal activity: buffers of varying pH with 100 mM NaCl, FIGS. 5A, 5B
# From the text: FIGS. 5A and 5B. The activity of purified recombinant bovine PAG-2 and -12 (FIG. 5A), and porcine PAG-2 (FIG. 5B), against a fluorescent cathepsin D substrate as a function of pH. In FIG. 5A, triangles represent boPAG-2 activity, which is at a maximum at pH 4, while squares represent boPAG-12 activity. In both panels (A and B), each activity point is normalized by the maximum activity (relative fluorescence units) of each peptidase at its optimal pH. The percent activity is shown on the Y-axis and the pH of respective buffers on the X-axis. The error bars represent standard deviation in results obtained from duplicate reads from two separate experiments.
# Recombinant boPAG-2 and -12 and recombinant porcine PAG-2 (poPAG-2) were tested for proteolytic activity by incubation with 20 μM fluorescent cathepsin D/E substrate (Peptides International, as above) in buffers of varying pH containing 100 mM NaCl. Raw fluorescence data was transformed to % relative activity, with the highest value set at 100%. Maximal activity for boPAG-2 was at pH 4, while maximal activity for boPAG-12 and poPAG-2 was at pH 3.5 (FIGS. 5A and 5B).
molecule,measurement,setting,value
CC(C)CC(=O)N[C@H](C(=O)N[C@H](C(=O)N[C@@H](CC(C)C)[C@@H](O)CC(=O)N[C@@H](C)C(=O)N[C@@H](CC(C)C)[C@@H](O)CC(=O)O)C(C)C)C(C)C [pepstatin A] (Isovaleryl-VV[Sta]A[Sta]-OH),inhibition of peptidase activity,[1],inhibited
B1,proteolytic activity,"[2]; anti-FLAG immuno-trap, pH 3-7, compared with TSH-beta control",does not have proteolytic activity
same,"Relative fluorescent product release, pH 3.0","[2]; pH 3.0, immobilized with anti-FLAG",38349
same,"Relative fluorescent product release, pH 4.0","[2]; pH 4.0, immobilized with anti-FLAG",33908
same,"Relative fluorescent product release, pH 5.0","[2]; pH 5.0, immobilized with anti-FLAG",34996.5
same,"Relative fluorescent product release, pH 6.0","[2]; pH 6.0, immobilized with anti-FLAG",28222.5
same,"Relative fluorescent product release, pH 7.0","[2]; pH 7.0, immobilized with anti-FLAG",26590.5
B2,pH of maximal activity,[3],3.5
same,activity at pH 2.5,"[3]; pH 2.5, 100 mM NaCl",showed activity
B3,pH of maximal activity,[3],4
